Measured values taken from the supplement of paper PMC7125110.
± gives the standard error. Fewer inactive variants are shown than the library holds.

B1: glmS ribozyme (parent)
chain: AUAAAAGCGCCAGAACUACAGAAAUGUAGUUGACGAGGAGGAGGUUUAUCGAAUUUUCGGCGGAUGCCUCCAAA

Columns and labels:
Details in all cases: with glucosamine-6-phosphate
[1] = variants of: B1; test: self-cleavage kobs at 40 uM GlcN6P; higher = faster cleavage; RNA array
Procedure, shortened: (§1)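 Glucosamine-6-phosphate (40 μM to 10 mM) in HEPES/KCl/Mg(OAc)2 buffer was flowed over sequenced MiSeq chips, and tiles were imaged over ~14 h. Barcoded ribozyme variants there had been transcribed in situ by E. coli RNA polymerase and were tracked through a hybridised Cy3 probe at 37 °C. One- or two-exponential decay fits to per-tile medians, normalised to baseline and to non-cleaving reference variants, gave kobs. kcat and KM came from weighted Michaelis–Menten fits across concentrations.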

[2] = variants of: B1; test: self-cleavage kobs at 10000 uM GlcN6P; higher = faster cleavage; RNA array
Procedure, shortened: as §1

[3] = variants of: B1; test: self-cleavage kobs at 160 uM GlcN6P; higher = faster cleavage; RNA array
Procedure, shortened: as §1

[4] = variants of: B1; test: self-cleavage kobs at 640 uM GlcN6P; higher = faster cleavage; RNA array
Procedure, shortened: as §1

[5] = variants of: B1; test: self-cleavage kobs at 2500 uM GlcN6P; higher = faster cleavage; RNA array
Procedure, shortened: as §1

| Variant | self-cleavage kobs at 40 uM GlcN6P [1] [s⁻¹] | self-cleavage kobs at 10000 uM GlcN6P [2] [s⁻¹] | self-cleavage kobs at 160 uM GlcN6P [3] [s⁻¹] | self-cleavage kobs at 640 uM GlcN6P [4] [s⁻¹] | self-cleavage kobs at 2500 uM GlcN6P [5] [s⁻¹] |
| --- | --- | --- | --- | --- | --- |
| G40C C50U C58A C71G | < 1e-05 | < 1e-05 | – | – | – |
| C8G C16U | < 1e-05 | < 1e-05 | < 1e-05 | < 1e-05 | < 1e-05 |
| A1U U2G A3G A5U A6C G7C C8A G9U C10A C11A | < 1e-05 | < 1e-05 | < 1e-05 | < 1e-05 | < 1e-05 |
| C11G U69G | 3.62e-05 ± 1.4e-05 | – | 0.000125 ± 2.3e-05 | 0.000184 ± 3.4e-05 | 8.88e-05 ± 1.6e-05 |
| C8A G38C C71A | < 1e-05 | – | – | < 1e-05 | – |
| C8G G38U G60U | < 1e-05 | – | – | – | – |
| U30A C34U C68G | 0.000169 ± 6.6e-05 | 0.000202 ± 6.3e-05 | – | 0.000629 ± 0.00024 | – |
| G32C A52C G63A | < 1e-05 | – | – | – | – |
| U47A A52C | < 1e-05 | – | – | – | – |
| G37U A48U | < 1e-05 | < 1e-05 | < 1e-05 | – | < 1e-05 |
| G35C U49A | < 1e-05 | – | – | < 1e-05 | < 1e-05 |
| A12G A33G C34U A48C C71G | < 1e-05 | – | – | – | – |
| C11A G35A U55A G60U U65A C68G | 0.00461 ± 0.0018 | 5.33e-05 ± 1.7e-05 | – | – | – |
| G7U C16G | < 1e-05 | < 1e-05 | – | < 1e-05 | – |
| C10U G60U C67U | < 1e-05 | < 1e-05 | < 1e-05 | < 1e-05 | – |
| A12U G44C U65A | < 1e-05 | – | – | – | – |
| C10G G40C C70G | < 1e-05 | < 1e-05 | < 1e-05 | < 1e-05 | < 1e-05 |
| G7U G9C C11G A12C U55A | < 1e-05 | < 1e-05 | – | – | – |
| A6U A12U G43A U47G | < 1e-05 | – | – | – | – |
| C11G A48C | < 1e-05 | < 1e-05 | – | – | – |
| G44A C58A C70U | < 1e-05 | – | < 1e-05 | < 1e-05 | – |
| C8U A12C G40A U45G G60A G66U | < 1e-05 | – | – | – | – |
| C16U G38A | < 1e-05 | – | < 1e-05 | < 1e-05 | < 1e-05 |
| U47C G63C | < 1e-05 | < 1e-05 | – | < 1e-05 | < 1e-05 |

| Variant | self-cleavage kobs at 40 uM GlcN6P [1] [s⁻¹] | self-cleavage kobs at 10000 uM GlcN6P [2] [s⁻¹] | self-cleavage kobs at 160 uM GlcN6P [3] [s⁻¹] | self-cleavage kobs at 640 uM GlcN6P [4] [s⁻¹] | self-cleavage kobs at 2500 uM GlcN6P [5] [s⁻¹] |
| --- | --- | --- | --- | --- | --- |
| A39U C68U C71G | < 1e-05 | 4.42e-05 ± 2e-05 | – | – | – |
| C8A G40U | < 1e-05 | < 1e-05 | < 1e-05 | < 1e-05 | < 1e-05 |
| G40A C61U | < 1e-05 | – | < 1e-05 | < 1e-05 | – |
| C11G A39G U46G C61U U65C C68A | < 1e-05 | < 1e-05 | – | – | – |
| A39U G51U | < 1e-05 | < 1e-05 | – | < 1e-05 | – |
| A15G G63C | < 1e-05 | < 1e-05 | < 1e-05 | < 1e-05 | < 1e-05 |
| A14G C50G C71U | 0.000639 ± 0.00021 | 4.82e-05 ± 2e-05 | 0.000245 ± 7.3e-05 | 0.00131 ± 0.00027 | – |
| A15C A52U A53G U56C | < 1e-05 | < 1e-05 | – | – | – |
| U45A U55C | 0.000654 ± 0.00021 | 0.024 ± 0.0085 | – | 0.00526 ± 0.0015 | 0.00714 ± 0.0029 |
| A6C C16A G29A G63C C67A | < 1e-05 | – | – | – | – |
| A15G C71A | 0.000251 ± 5.9e-05 | 0.005 ± 0.0016 | 0.00102 ± 0.00025 | 0.00108 ± 0.00025 | 0.006 ± 0.0015 |
| C8U G9C C10A G37U G40U G41A C50U | < 1e-05 | – | – | – | – |
| A52U G62A | < 1e-05 | < 1e-05 | – | < 1e-05 | < 1e-05 |
| G60C C61A | < 1e-05 | < 1e-05 | < 1e-05 | < 1e-05 | – |
| C8U G38U U49G C50A C68G | 0.00105 ± 0.00026 | 0.000545 ± 0.00014 | – | – | – |
| A52C G60U U69C | < 1e-05 | – | – | – | – |
| C8U U30A G62A U65A C71U | < 1e-05 | – | – | – | – |
| G9A U30C U31C C50A | < 1e-05 | < 1e-05 | < 1e-05 | < 1e-05 | – |
| A42C A53G | < 1e-05 | – | < 1e-05 | – | – |
| A6G A14C C34A C68A | < 1e-05 | – | – | – | – |
| A33C U65G | < 1e-05 | – | < 1e-05 | < 1e-05 | – |
| A6C G41A | < 1e-05 | – | – | < 1e-05 | < 1e-05 |
| A39U G40U C70U | 9.82e-05 ± 1.8e-05 | 0.00219 ± 0.00054 | 0.000392 ± 6.8e-05 | 0.000466 ± 7.4e-05 | 0.00127 ± 0.0003 |
